One may read the Km as the concentration of substrate that gives half-maximal velocity. In general, Vmax refers to the top rate of the reaction or transport when substrate is in excess. Usually kcat stands for the maximal rate divided by the concentration of active sites. For orientation: kcat/Km means the turnover number divided by the Michaelis constant.

Two proteins from publication PMC8449659, “Depolymerization of biorefinery lignin by improved laccases of the white‐rot fungus Obba rivulosa” (Microbial Biotechnology, 2021) can be followed below.

Substrate in this data set: COc1cccc(OC)c1O
The data set is described as follows: purified protein. The format is biochemical, Obba rivulosa. As to conditions: O2 co-substrate, error is 95% confidence interval.

[1] abbreviates: pH 3.5, citrate phosphate buffer, 0-31 mM substrate.
The mark [2] stands for this setting: pH 6.0, citrate phosphate buffer, 0-2 mM substrate.

B1: rOrLcc1 (variant rOrLcc1-D208N) (Obba rivulosa; D229N) (protein)
chain: AIGPVTDLVITDAFVTPDGPNLGREAVLAGGTFPGPLIQGNKGDNFQINVVNNLTNHTMLKTTSIHWHGLFQHGTNWADGPAFVNQCPIASGNSFLYNFNVPDQAGTFWYHSHLATQYCDGLRGPLVVYDPNDPYADLYDVDDESTVITLSDWYHAAASTLTFPTFDTTLINGLGRFAGTGGTDSDLAVITVEQGKRYRFRLAAISCNPNWVFSIDEHVMTIIEADAVNTLPLTVDAIQIFAAQRYSFVLNANQTVGNYWIRANPNNGNMGFANGINSAILRYSGATIEDPTTNSTIVNQLNEADLSPLTNPQAPGAPSQDPGAVDVAMNLAFSFNGTRLFINGVSFVPPSVPVLLQILSGSMTAQDLLPTGSVYTLPRNATVQISMPGNIIAGPHPFHLHGHTFSVIRSAGESDYNYDNPVQRDTVSIGGATDNVTIRFTTNNPGPWFLHCHIDWHLQAGFAIVFAEDTPDIASANPVPQAWSDLCPTYDALDPSDT
notes: codon-optimized cDNA in pPicZalphaA, secreted from Pichia pastoris X-33, purified in two steps
Turning to B1, under setting [1], the Michaelis-Menten constant (Km) amounted to 3668 ± 270 µM, the Vmax is 216 µM/min, the kcat came to 44 s⁻¹ and the kcat/Km turned out to be 12000 M⁻¹ s⁻¹.

B2: rOrLcc2-L497V (variant rOrLcc2-D206N) (Obba rivulosa; D227N/L518V) (protein)
chain: AIGPVTDLTITDVSISPDGFERAAVLAGGTFPGPLITGNIGDNFQINVVNQLSNETMLESTTIHWHGLFQKGTAWADGPAFVSQCPIATGNSFLYDFSVPDQAGTFWYHSHLATQYCDGLRGPLVVYDPNDAYLSDYDVDDDTTVITLADWYHTAATLGPRFPTQADATLINGLGRYSGGPESNLTVITVESGKRYRFRLVSISCNENYVFSIDDHEMIVIEADGVETQPVTVDSIQIFAAQRYSFILNATEAVDNYWIRATPDLGTTGFTDGINSAILRYVGANDTDPTTASNTTNLLSELDLHPLTNAAAPGAASQDPGSVDVSMNLELGFDGTNFTINGATFVPPTVPVLLQILSGAQSATDLLPSGSVFTLPSNSTVQVTLAAGTVAGGPHPFHLHGHTFSVVRSAGSDTYNYDNPVQRDTVSIGADGDNVTIRFDTNNPGPWFLHCHIDWHLNAGFAIVFAEDTADIASANPVPDSWSDLCPTYDALPSDEV
notes: codon-optimized cDNA in pPicZalphaA, C-terminal L497V to remove possible ER-retention signal SDEL, secreted from Pichia pastoris X-33, purified in two steps
For B2, under setting [2], the Km came out at 38 ± 0 µM, the Vmax is 150 µM/min, the kcat came out at 112 s⁻¹ and the specificity constant (kcat/Km) came out at 2.95e+06 M⁻¹ s⁻¹.
